These results are taken from patent US20020123056A1.

The test concerns the target PKB-sub peptide (GSK3 consensus peptide) …. The experiment in a line: cell-based or functional assay.

As for “GST-SGK2 fusion protein (human SGK2 with N-terminal Glutathione S-transferase tag, expressed in Hi5 insect cells) (from UniProt Q9HBY8 1-367) (enzyme)”, the kinase activity, 32P incorporation; GST-SGK2 from Hi5 cells treated with Calyculin A came to 92500 CCPM1; the kinase activity, 32P incorporation; GST-SGK2 from Hi5 cells treated with Microcysteine was 217 CCPM1; the kinase activity, 32P incorporation; GST-SGK2 from Hi5 cells treated with Okadaic Acid turned out to be 132000 CCPM1; the kinase activity, 32P incorporation; GST-SGK2 from untreated Hi5 cells came to 979 CCPM1.
